Assay [1] concerns the target T1, Human PD-1 on CHO-S cells (human, UniProt Q15116 25-288).
T1 construct: whole, on cells; also called CHO-S.hPro1.C6; WBP305.CHO-S.hPro1.C6
The experiment in a line: FACS competition with biotinylated BMK3 (1 ug/mL) on CHO-S.hPro1.C6 cells, SA-PE. The procedure:
The human PD-1 transfected cells CHO-S.hPro1.C6 were transferred into 96-well U-bottom plates at a density of 1˜2×10⁵ cells/well. Serial dilutions of testing antibodies (4-fold serially diluted from 133.3 nM to 0.008 nM) were mixed with constant concentration of biotinylated BMK1 (1 μg/mL) or biotinylated BMK3 (1 μg/mL), respectively. Then the mixture was added to the cells in 96-well plates and incubated at 4° C. for 1 hour. After washing with 1×PBS/1% BSA, the secondary antibody SA-PE was applied and incubated with cells at 4° C. for 1 hour. The cells were then washed and resuspended in 1×PBS/1% BSA. MFI of the cells was measured by a flow cytometer and analyzed by FlowJo. Data were shown FIG. 9.

Assay [2] deals with T2, Human PD-1 extracellular domain, mFc tag (human, UniProt Q15116 25-170).
T2 construct: extracellular domain; also called hPro1.ECD.mFc; hPD-1.ECD.mFc; not shown: mouse Fc tag at C-terminus
The experiment in a line: ELISA competition on coated hPro1.ECD.mFc; competitor hPro1L2.ECD.His; experiment 2. On the procedure:
Plates were pre-coated with 1 μg/mL, 100 μL per well of human PD-1 ECD (hPro1.ECD.mFc) at 4° C. overnight. After 1-hour blocking using 200 μL of 1×PBS/2% BSA, constant concentration of his tagged human PD-L2 ECD (hPro1L2.ECD.His) and various concentrations of testing antibodies (3-fold serially diluted from 66.7 nM to 0.003 nM) were pre-mixed and added to the plates. After 2-hour incubation at ambient temperature, the binding of the ligand to the immobilized protein was detected by HRP-labeled goat anti-His antibody. The color was developed by dispensing 100 μL of TMB substrate, and then stopped by 100 μL of 2N HCl. The absorbance was read at 450 nm and 540 nm using a microplate spectrophotometer.

For assay [3], the target named is T3, Cynomolgus PD-1 extracellular domain, hFc tag (cynomolgus, UniProt B0LAJ3 25-170).
T3 construct: Bought; also called cynoPro1.ECD.hFc; cyno PD-1 ECD protein
As to the kind of experiment: ELISA competition on coated cynoPro1.ECD.hFc; competitor cynoProL1.ECD.hFc.biotin 2.5 µg/mL; experiment 2. On the procedure: Plates were pre-coated with 1 μg/mL, 100 μL per well of cyno PD-1 ECD protein (cynoPro1.ECD.hFc) at 4° C. overnight. After 1-hour blocking using 200 μL of 1×PBS/2% BSA, constant concentration of biotinylated cyno PD-L1 (cynoProL1.ECD.hFc.biotin) (2.5 μg/mL) and various concentrations of testing antibody, positive and negative control (3-fold serially diluted from 133.4 nM to 0.007 nM) were pre-mixed and added to the plates. The plates were incubated at ambient temperature for 1 hour. The binding of ligand to the immobilized protein was detected by streptavidin-HRP. The color was developed by dispensing 100 μL of TMB substrate, and then stopped by 100 μL of 2M HCl. The absorbance was read at 450 nm and 540 nm using a microplate spectrophotometer.

Assay [4] addresses T1, Human PD-1 on CHO-S cells. As to the kind of experiment: FACS on CHO-S.hPro1.C6 cells, antibody kept 0 to 14 days in human serum at 37 C, PE goat anti-human IgG. On the procedure: The human PD-1 transfected cell line WBP305-CHO-S.hPro1.C6 cells (1×10⁵ cells/well) were incubated with various concentrations of serum treated W3056 anti-PD-1 antibodies (3-fold serially diluted from 129.9 nM to 0.0007 nM) at 4° C. for 1 hour. After washing with 1×PBS/1% BSA, the secondary antibody PE-labeled goat anti-human IgG was applied and incubated with cells at 4° C. for 1 hour. Human IgG4 isotype antibody was used as negative control. The cells were then washed and resuspended in 1×PBS/1% BSA. MFI of the cells was measured by a flow cytometer (BD) and analyzed by FlowJo.

T1 sequence (Q15116 25-288): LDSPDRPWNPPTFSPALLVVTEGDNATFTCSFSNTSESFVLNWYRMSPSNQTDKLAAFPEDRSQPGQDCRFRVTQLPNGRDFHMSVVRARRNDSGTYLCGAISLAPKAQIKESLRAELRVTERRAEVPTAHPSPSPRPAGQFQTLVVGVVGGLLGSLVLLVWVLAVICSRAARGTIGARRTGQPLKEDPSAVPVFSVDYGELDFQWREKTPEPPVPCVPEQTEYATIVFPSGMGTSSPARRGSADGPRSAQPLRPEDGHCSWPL
T3 sequence (B0LAJ3 entry or part of it limits assumed): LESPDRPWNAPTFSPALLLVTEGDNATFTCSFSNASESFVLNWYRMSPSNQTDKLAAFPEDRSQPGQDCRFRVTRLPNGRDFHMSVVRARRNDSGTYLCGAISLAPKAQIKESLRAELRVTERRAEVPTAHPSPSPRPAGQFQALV
T2 sequence (Q15116 25-170): as the sequence (B0LAJ3 entry or part of it limits assumed) above, with E2D, A10P, L19V, A35T, R75Q, A144T counted along it

B1: W3056-AP17R1-2H2-Z1-R1-14A1-FC(IgG4.SP) (Fc fusion)
chain: QVQLVESGGGVVQPGGSLRLSCAASDSIDSLVNMGWYRQAPGKQRELVALIATYITHYADFVKGRFTISRDNSKNTLYLQMNSLRAEDTAVYYCYARNIIVDYWGQGTLVTVSS
notes: also called W3056 lead antibody (VHH-Fc(hIgG4) fusion); not shown: Fc of human IgG4 (hIgG4.S228P)
For B1, the “IC50 (read off the curve)” value in assay [1] is around 20 nM. Besides, the results for the IC50 in assay [2] and in assay [3] were 0.886 nM and 0.853 nM, respectively. For the same molecule, in assay [4], the “EC50 (read off the curve)” value fell in the range of 1 to 2 nM.

These data come from patent publication US20240301067A1 (WUXI BIOLOGICS IRELAND, published 2024).
